OD450 nm and Ratio OD(Variant)/OD(WT) data for 19 molecules are collected here from patent US20240400654A1.

This assay concerns the target HRgpA-6H (Porphyromonas gingivalis) (UniProt P28784). The experiment in a line: ELISA, coated HRgpA-6H. In general terms: An ELISA detects its analyte on a solid surface through an enzyme-linked reagent.

Where “and” joins values, the source holds several entries; their conditions need not be identical. Equal values may be shown once.

UniProt P28784, sequence (P28784 228-860 limits assumed): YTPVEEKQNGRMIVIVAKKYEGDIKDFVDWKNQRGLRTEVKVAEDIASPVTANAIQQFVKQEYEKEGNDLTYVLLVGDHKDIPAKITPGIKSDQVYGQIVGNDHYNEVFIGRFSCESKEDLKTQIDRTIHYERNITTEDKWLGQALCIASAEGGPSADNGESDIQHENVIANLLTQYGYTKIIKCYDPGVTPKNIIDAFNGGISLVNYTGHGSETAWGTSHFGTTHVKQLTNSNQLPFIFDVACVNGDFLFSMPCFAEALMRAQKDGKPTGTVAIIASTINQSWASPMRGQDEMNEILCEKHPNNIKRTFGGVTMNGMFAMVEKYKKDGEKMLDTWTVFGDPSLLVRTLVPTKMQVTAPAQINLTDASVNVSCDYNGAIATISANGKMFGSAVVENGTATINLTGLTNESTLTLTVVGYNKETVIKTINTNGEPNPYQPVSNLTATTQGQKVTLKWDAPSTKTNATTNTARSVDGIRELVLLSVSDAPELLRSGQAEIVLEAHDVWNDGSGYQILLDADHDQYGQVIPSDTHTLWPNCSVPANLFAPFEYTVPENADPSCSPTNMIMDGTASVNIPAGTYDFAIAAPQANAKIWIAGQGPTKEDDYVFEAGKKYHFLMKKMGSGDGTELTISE

B1: KB001 mouse Fab VH G99S (Fab, V domains shown)
VH: EVQLKQSGPGLVAPSQSLSITCTVSGFSLSIYSVHWVRQPPGKGLEWLGMIWGGGSSDYNSALKSRLSISKDNSKSQVFLKMNSLQTDDTAMYYCARNSNFYAMDYWGQGTSVTVSS
VL: QIVLTQSPAIMSASLGERVTMTCTASSSVSSSFLHWYQQKPGSSPQLWIYSTSNLASGVPARFSGSGSGTSYSLTISSMEAEDAATYYCHQYHHSPYIYTFGGGTKLEIK
In the case of B1, the OD450 nm was 0.809 and the Ratio OD(Variant)/OD(WT) stood at 1.01.

B2: KB001 mouse Fab VH S28H (Fab, V domains shown)
VH: EVQLKQSGPGLVAPSQSLSITCTVSGFHLSIYSVHWVRQPPGKGLEWLGMIWGGGSSDYNSALKSRLSISKDNSKSQVFLKMNSLQTDDTAMYYCARNGNFYAMDYWGQGTSVTVSS
VL: QIVLTQSPAIMSASLGERVTMTCTASSSVSSSFLHWYQQKPGSSPQLWIYSTSNLASGVPARFSGSGSGTSYSLTISSMEAEDAATYYCHQYHHSPYIYTFGGGTKLEIK
On to B2, for which the OD450 nm is 0.511 and 0.526; the Ratio OD(Variant)/OD(WT) is 0.946 and 0.974.

B3: KB001 mouse Fab VH N100E (Fab, V domains shown)
VH: EVQLKQSGPGLVAPSQSLSITCTVSGFSLSIYSVHWVRQPPGKGLEWLGMIWGGGSSDYNSALKSRLSISKDNSKSQVFLKMNSLQTDDTAMYYCARNGEFYAMDYWGQGTSVTVSS
VL: QIVLTQSPAIMSASLGERVTMTCTASSSVSSSFLHWYQQKPGSSPQLWIYSTSNLASGVPARFSGSGSGTSYSLTISSMEAEDAATYYCHQYHHSPYIYTFGGGTKLEIK
As for B3, the OD450 nm was 0.886 and the Ratio OD(Variant)/OD(WT) amounted to 1.05.

B4: KB001 mouse Fab VH Y106Q (Fab, V domains shown)
VH: EVQLKQSGPGLVAPSQSLSITCTVSGFSLSIYSVHWVRQPPGKGLEWLGMIWGGGSSDYNSALKSRLSISKDNSKSQVFLKMNSLQTDDTAMYYCARNGNFYAMDQWGQGTSVTVSS
VL: QIVLTQSPAIMSASLGERVTMTCTASSSVSSSFLHWYQQKPGSSPQLWIYSTSNLASGVPARFSGSGSGTSYSLTISSMEAEDAATYYCHQYHHSPYIYTFGGGTKLEIK
In the case of B4, the OD450 nm turned out to be 0.792 and the Ratio OD(Variant)/OD(WT) amounted to 1.03.

B5: KB001 mouse Fab VH Y106M (Fab, V domains shown)
VH: EVQLKQSGPGLVAPSQSLSITCTVSGFSLSIYSVHWVRQPPGKGLEWLGMIWGGGSSDYNSALKSRLSISKDNSKSQVFLKMNSLQTDDTAMYYCARNGNFYAMDMWGQGTSVTVSS
VL: QIVLTQSPAIMSASLGERVTMTCTASSSVSSSFLHWYQQKPGSSPQLWIYSTSNLASGVPARFSGSGSGTSYSLTISSMEAEDAATYYCHQYHHSPYIYTFGGGTKLEIK
With B5, the OD450 nm is 0.794 and 0.84; the Ratio OD(Variant)/OD(WT) is 1.03 and 1.09.

B6: KB001 mouse Fab VH Y106W (Fab, V domains shown)
VH: EVQLKQSGPGLVAPSQSLSITCTVSGFSLSIYSVHWVRQPPGKGLEWLGMIWGGGSSDYNSALKSRLSISKDNSKSQVFLKMNSLQTDDTAMYYCARNGNFYAMDWWGQGTSVTVSS
VL: QIVLTQSPAIMSASLGERVTMTCTASSSVSSSFLHWYQQKPGSSPQLWIYSTSNLASGVPARFSGSGSGTSYSLTISSMEAEDAATYYCHQYHHSPYIYTFGGGTKLEIK
On to B6, for which the OD450 nm is 0.791 and 0.809 and 0.82; the Ratio OD(Variant)/OD(WT) was 1.03 and 1.05 and 1.07.

B7: KB001 mouse Fab VH Y106I (Fab, V domains shown)
VH: EVQLKQSGPGLVAPSQSLSITCTVSGFSLSIYSVHWVRQPPGKGLEWLGMIWGGGSSDYNSALKSRLSISKDNSKSQVFLKMNSLQTDDTAMYYCARNGNFYAMDIWGQGTSVTVSS
VL: QIVLTQSPAIMSASLGERVTMTCTASSSVSSSFLHWYQQKPGSSPQLWIYSTSNLASGVPARFSGSGSGTSYSLTISSMEAEDAATYYCHQYHHSPYIYTFGGGTKLEIK
For the molecule B7, the OD450 nm amounted to 0.803 and the Ratio OD(Variant)/OD(WT) was determined as 1.04.

B8: KB001 mouse Fab VH Y106T (Fab, V domains shown)
VH: EVQLKQSGPGLVAPSQSLSITCTVSGFSLSIYSVHWVRQPPGKGLEWLGMIWGGGSSDYNSALKSRLSISKDNSKSQVFLKMNSLQTDDTAMYYCARNGNFYAMDTWGQGTSVTVSS
VL: QIVLTQSPAIMSASLGERVTMTCTASSSVSSSFLHWYQQKPGSSPQLWIYSTSNLASGVPARFSGSGSGTSYSLTISSMEAEDAATYYCHQYHHSPYIYTFGGGTKLEIK
As to B8, the OD450 nm turned out to be 0.827 and the Ratio OD(Variant)/OD(WT) stood at 1.07.

B9: KB001 mouse Fab VH Y106F (Fab, V domains shown)
VH: EVQLKQSGPGLVAPSQSLSITCTVSGFSLSIYSVHWVRQPPGKGLEWLGMIWGGGSSDYNSALKSRLSISKDNSKSQVFLKMNSLQTDDTAMYYCARNGNFYAMDFWGQGTSVTVSS
VL: QIVLTQSPAIMSASLGERVTMTCTASSSVSSSFLHWYQQKPGSSPQLWIYSTSNLASGVPARFSGSGSGTSYSLTISSMEAEDAATYYCHQYHHSPYIYTFGGGTKLEIK
On to B9, for which the OD450 nm was 0.815 and 0.856; the Ratio OD(Variant)/OD(WT) is 1.06 and 1.11.

B10: KB001 mouse Fab VH Y106V (Fab, V domains shown)
VH: EVQLKQSGPGLVAPSQSLSITCTVSGFSLSIYSVHWVRQPPGKGLEWLGMIWGGGSSDYNSALKSRLSISKDNSKSQVFLKMNSLQTDDTAMYYCARNGNFYAMDVWGQGTSVTVSS
VL: QIVLTQSPAIMSASLGERVTMTCTASSSVSSSFLHWYQQKPGSSPQLWIYSTSNLASGVPARFSGSGSGTSYSLTISSMEAEDAATYYCHQYHHSPYIYTFGGGTKLEIK
For B10, the OD450 nm was 0.795 and 0.84 and 0.802; the Ratio OD(Variant)/OD(WT) is 1.03 and 1.09 and 1.04.

B11: KB001 mouse Fab VH G26D (Fab, V domains shown)
VH: EVQLKQSGPGLVAPSQSLSITCTVSDFSLSIYSVHWVRQPPGKGLEWLGMIWGGGSSDYNSALKSRLSISKDNSKSQVFLKMNSLQTDDTAMYYCARNGNFYAMDYWGQGTSVTVSS
VL: QIVLTQSPAIMSASLGERVTMTCTASSSVSSSFLHWYQQKPGSSPQLWIYSTSNLASGVPARFSGSGSGTSYSLTISSMEAEDAATYYCHQYHHSPYIYTFGGGTKLEIK
As for B11, the OD450 nm was 0.47 and 0.481; the Ratio OD(Variant)/OD(WT) was 0.925 and 0.947.

B12: KB001 mouse Fab VH Y106N (Fab, V domains shown)
VH: EVQLKQSGPGLVAPSQSLSITCTVSGFSLSIYSVHWVRQPPGKGLEWLGMIWGGGSSDYNSALKSRLSISKDNSKSQVFLKMNSLQTDDTAMYYCARNGNFYAMDNWGQGTSVTVSS
VL: QIVLTQSPAIMSASLGERVTMTCTASSSVSSSFLHWYQQKPGSSPQLWIYSTSNLASGVPARFSGSGSGTSYSLTISSMEAEDAATYYCHQYHHSPYIYTFGGGTKLEIK
Regarding B12, the OD450 nm turned out to be 0.792 and the Ratio OD(Variant)/OD(WT) came to 1.03.

B13: KB001 mouse Fab VH Y106R (Fab, V domains shown)
VH: EVQLKQSGPGLVAPSQSLSITCTVSGFSLSIYSVHWVRQPPGKGLEWLGMIWGGGSSDYNSALKSRLSISKDNSKSQVFLKMNSLQTDDTAMYYCARNGNFYAMDRWGQGTSVTVSS
VL: QIVLTQSPAIMSASLGERVTMTCTASSSVSSSFLHWYQQKPGSSPQLWIYSTSNLASGVPARFSGSGSGTSYSLTISSMEAEDAATYYCHQYHHSPYIYTFGGGTKLEIK
As to B13, the OD450 nm was found to be 0.793 and the Ratio OD(Variant)/OD(WT) came to 1.03.

B14: KB001 mouse Fab VH G26N (Fab, V domains shown)
VH: EVQLKQSGPGLVAPSQSLSITCTVSNFSLSIYSVHWVRQPPGKGLEWLGMIWGGGSSDYNSALKSRLSISKDNSKSQVFLKMNSLQTDDTAMYYCARNGNFYAMDYWGQGTSVTVSS
VL: QIVLTQSPAIMSASLGERVTMTCTASSSVSSSFLHWYQQKPGSSPQLWIYSTSNLASGVPARFSGSGSGTSYSLTISSMEAEDAATYYCHQYHHSPYIYTFGGGTKLEIK
As to B14, the OD450 nm was found to be 0.445 and the Ratio OD(Variant)/OD(WT) stood at 0.876.

B15: KB001 mouse Fab VH Y106A (Fab, V domains shown)
VH: EVQLKQSGPGLVAPSQSLSITCTVSGFSLSIYSVHWVRQPPGKGLEWLGMIWGGGSSDYNSALKSRLSISKDNSKSQVFLKMNSLQTDDTAMYYCARNGNFYAMDAWGQGTSVTVSS
VL: QIVLTQSPAIMSASLGERVTMTCTASSSVSSSFLHWYQQKPGSSPQLWIYSTSNLASGVPARFSGSGSGTSYSLTISSMEAEDAATYYCHQYHHSPYIYTFGGGTKLEIK
Regarding B15, the OD450 nm was 0.821 and 0.835; the Ratio OD(Variant)/OD(WT) is 1.07 and 1.09.

B16: KB001 mouse Fab VH A103S (Fab, V domains shown)
VH: EVQLKQSGPGLVAPSQSLSITCTVSGFSLSIYSVHWVRQPPGKGLEWLGMIWGGGSSDYNSALKSRLSISKDNSKSQVFLKMNSLQTDDTAMYYCARNGNFYSMDYWGQGTSVTVSS
VL: QIVLTQSPAIMSASLGERVTMTCTASSSVSSSFLHWYQQKPGSSPQLWIYSTSNLASGVPARFSGSGSGTSYSLTISSMEAEDAATYYCHQYHHSPYIYTFGGGTKLEIK
As for B16, the OD450 nm worked out at 0.909 and the Ratio OD(Variant)/OD(WT) was 1.05.

B17: KB001 mouse Fab VH Y106L (Fab, V domains shown)
VH: EVQLKQSGPGLVAPSQSLSITCTVSGFSLSIYSVHWVRQPPGKGLEWLGMIWGGGSSDYNSALKSRLSISKDNSKSQVFLKMNSLQTDDTAMYYCARNGNFYAMDLWGQGTSVTVSS
VL: QIVLTQSPAIMSASLGERVTMTCTASSSVSSSFLHWYQQKPGSSPQLWIYSTSNLASGVPARFSGSGSGTSYSLTISSMEAEDAATYYCHQYHHSPYIYTFGGGTKLEIK
Take B17: the OD450 nm came out at 0.791 and the Ratio OD(Variant)/OD(WT) is 1.03.

B18: KB001 mouse Fab VH Y106S (Fab, V domains shown)
VH: EVQLKQSGPGLVAPSQSLSITCTVSGFSLSIYSVHWVRQPPGKGLEWLGMIWGGGSSDYNSALKSRLSISKDNSKSQVFLKMNSLQTDDTAMYYCARNGNFYAMDSWGQGTSVTVSS
VL: QIVLTQSPAIMSASLGERVTMTCTASSSVSSSFLHWYQQKPGSSPQLWIYSTSNLASGVPARFSGSGSGTSYSLTISSMEAEDAATYYCHQYHHSPYIYTFGGGTKLEIK
For B18, the OD450 nm is 0.852 and 0.849; the Ratio OD(Variant)/OD(WT) was 1.11 and 1.1.

B19: KB001 mouse Fab VH Y106K (Fab, V domains shown)
VH: EVQLKQSGPGLVAPSQSLSITCTVSGFSLSIYSVHWVRQPPGKGLEWLGMIWGGGSSDYNSALKSRLSISKDNSKSQVFLKMNSLQTDDTAMYYCARNGNFYAMDKWGQGTSVTVSS
VL: QIVLTQSPAIMSASLGERVTMTCTASSSVSSSFLHWYQQKPGSSPQLWIYSTSNLASGVPARFSGSGSGTSYSLTISSMEAEDAATYYCHQYHHSPYIYTFGGGTKLEIK
For the molecule B19, the OD450 nm is 0.807 and the Ratio OD(Variant)/OD(WT) was determined as 1.05.
